The values that follow are results of earlier work, collected in US20190351024A1, “IMMUNOCYTOKINES WITH PROGRESSIVE ACTIVATION MECHANISM” (PHILOGEN S.p.A., priority 2016, published 2019).

For the data set the following is noted: past clinical trials; cited from earlier work.

TNF-α: the maximum tolerated dose is 150-300 μg/m^2/day.
